Measurements reported in US20220339270A1.

Tests used:
[1] = molecular target: Phospho_Tau441 (Tau441 phosphorylated in vitro by DYRK1A) (human), P10636; assay: ELISA, PT3 immobilized, tau protein applied at 333 ng/mL; conditions: remark: other sources report otherwise
[2] = molecular target: Tau441 (recombinant, not phosphorylated) (human), P10636; assay: as above; conditions: remark: other sources report otherwise
Tau441 (recombinant, not phosphorylated) (human), P10636, sequence (P10636 other isoform, or with tags, fused parts or gaps limits assumed): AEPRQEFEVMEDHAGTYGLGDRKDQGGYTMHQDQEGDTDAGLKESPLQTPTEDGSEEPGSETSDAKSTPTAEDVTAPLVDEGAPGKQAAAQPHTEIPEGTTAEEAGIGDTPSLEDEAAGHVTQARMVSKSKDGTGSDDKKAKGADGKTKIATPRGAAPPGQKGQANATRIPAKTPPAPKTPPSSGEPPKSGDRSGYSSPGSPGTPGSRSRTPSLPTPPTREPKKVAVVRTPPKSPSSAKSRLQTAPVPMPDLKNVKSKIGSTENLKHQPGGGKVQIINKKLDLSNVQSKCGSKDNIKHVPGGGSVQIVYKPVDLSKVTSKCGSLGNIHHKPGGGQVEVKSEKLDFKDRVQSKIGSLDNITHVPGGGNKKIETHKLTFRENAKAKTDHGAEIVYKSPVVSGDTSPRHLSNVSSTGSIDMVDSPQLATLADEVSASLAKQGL

Phospho_Tau441 (Tau441 phosphorylated in vitro by DYRK1A) (human), P10636, sequence (P10636 other isoform, or with tags, fused parts or gaps limits assumed): as above

OD450-570 [1]: 0.5
OD450-570 [2]: 0
B1: anti-tau antibody PT3 (antibody, V domains shown)
VH: EVKLVESGGDLVKPGGSLKLSCAASGFTFSSYAMSWVRQNPEKRLEWVASISKGGNTYYPNSVKGRFTISRDNARNILYLQMSSLRSEDTALYYCARGWGDYGWFAYWGQVTLVTVSA
VL: DIKMTQSPSSMYASLGERVTITCKASQDINRYLNWFQQKPGKSPKTLIYRANRLLDGVPSRFSGSGSGQDYSLTISSLDYEDMGIYYCLQYDEFPLTFGDGTKLELK
